Test results published in the supplement of paper PMC12783771.
Positions count from the first letter of the chain named. ± gives the standard deviation of the averaged measurements.

B1: library; a variant is named by its letters at X, in order (parent)
chain: MNIQIGELAKRTACPVVTIRFYEQEGLLPPPGRSRGNFRLYGEEHVERLQFIRHCRSLDMPLSDVRTLLSYRKRPDQDCGEVXMLLDEHIRQVESRIGALLELKHHLVELREACSGARPAQSCGILQXLSXCVCXTRGTTAHXSD
B2: library; a variant is named by its letters at X, in order (parent)
chain: B1 chain with D64X, K104X, L107X

How the values were obtained:
[1] = variants of: B1; test: sfGFP reporter fluorescence (15 h) (µM FITC); higher = higher leak; conditions: library round: Round 2; ligand: none
Description: (§1)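 Cell-free biosensing: 1 µL Echo-assembled CFE reactions with linear PbrR variant templates (5 nM) and pPbrR-sfGFP reporter, with 1 µM Pb, 30 µM Zn or no ligand; endpoint sfGFP fluorescence after 15 h at 30 °C calibrated as µM FITC. Round 2 ML-predicted PbrR mutants; up to 3 biological replicates.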

[2] = variants of: B1; test: sfGFP reporter fluorescence (15 h) (µM FITC); higher = stronger transcriptional activation; conditions: library round: Round 2
Description: as §1

[3] = variants of: B2; test: sfGFP reporter fluorescence (15 h) (µM FITC); higher = higher leak; conditions: library round: Round 3; ligand: none
Description: (§2)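 Cell-free biosensing: 1 µL Echo-assembled CFE reactions with linear PbrR variant templates (5 nM) and pPbrR-sfGFP reporter, with 1 µM Pb, 30 µM Zn or no ligand; endpoint sfGFP fluorescence after 15 h at 30 °C calibrated as µM FITC. Round 3 ML-predicted PbrR mutants; up to 3 biological replicates.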

[4] = variants of: B2; test: sfGFP reporter fluorescence (15 h) (µM FITC); higher = stronger transcriptional activation; conditions: library round: Round 3
Description: as §2

Which results are given for MNIQIGELAKRTACPVVTIRFYEQEGLLPPPGRSRGNFRLYGEEHVERLQFIRHCRSLDMPLSDVRTLLSYRKRPDQDCGEVSMLLDEHIRQVESRIGALLELKHHLVELREACSGARPAQSCGILQALSDCVCATRGTTAHPSD?
sfGFP reporter fluorescence [1]: 0.0791 ± 0.013; sfGFP reporter fluorescence ([2]; ligand: 1 µM Pb): 0.19 ± 0.019; sfGFP reporter fluorescence ([2]; ligand: 30 µM Zn): 2.33 ± 0.44

What does the source list for MNIQIGELAKRTACPVVTIRFYEQEGLLPPPGRSRGNFRLYGEEHVERLQFIRHCRSLDMPLSDVRTLLSYRKRPDQDCGEVNMLLDEHIRQVESRIGALLELKHHLVELREACSGARPAQSCGILQELSDCVCATRGTTAHTSD?
sfGFP reporter fluorescence [1]: 0.0492 ± 0.001; sfGFP reporter fluorescence ([2]; ligand: 1 µM Pb): 0.0597 ± 0.0011; sfGFP reporter fluorescence ([2]; ligand: 30 µM Zn): 0.594 ± 0.053

Which sfGFP reporter fluorescence [1] does the source give for MNIQIGELAKRTACPVVTIRFYEQEGLLPPPGRSRGNFRLYGEEHVERLQFIRHCRSLDMPLSDVRTLLSYRKRPDQDCGEVNMLLDEHIRQVESRIGALLELKHHLVELRDACSGARPAQSCGILQGLSACVCATRGTTAHFSD here?
Its sfGFP reporter fluorescence is 0.0594 ± 0.0017.

What about the sfGFP reporter fluorescence ([2]; ligand: 1 µM Pb) of the same variant?
The sfGFP reporter fluorescence was 0.0886 ± 0.0049.

And the sfGFP reporter fluorescence ([2]; ligand: 30 µM Zn)?
Its sfGFP reporter fluorescence is 0.82 ± 0.062.

What does the source list for MNIQIGELAKRTACPVVTIRFYEQEGLLPPPGRSRGNFRLYGEEHVERLQFIRHCRSLDMPLSDVRTLLSYRKRPDQDCGEVNMLLDEHIRQVESRIGALLELRHHLVELREACSGARPAQSCGILQALSDCVCATRGTTAHPSD?
sfGFP reporter fluorescence [1]: 0.123 ± 0.0024; sfGFP reporter fluorescence ([2]; ligand: 1 µM Pb): 0.419 ± 0.072; sfGFP reporter fluorescence ([2]; ligand: 30 µM Zn): 2.34 ± 0.033

Which sfGFP reporter fluorescence [1] does the source give for MNIQIGELAKRTACPVVTIRFYEQEGLLPPPGRSRGNFRLYGEEHVERLQFIRHCRSLDMPLSDVRTLLSYRKRPDQDCGEVNMLLDEHIRQVESRIGALLELKHHLLELREACSGARPAQSCGILQAMSDCVCPTRGTTAHPSD here?
The sfGFP reporter fluorescence was 0.0617 ± 0.0065.

What about the sfGFP reporter fluorescence ([2]; ligand: 1 µM Pb) of the same variant?
Its sfGFP reporter fluorescence is 0.0681 ± 0.0059.

What about the sfGFP reporter fluorescence ([2]; ligand: 30 µM Zn) of the same variant?
Its sfGFP reporter fluorescence is 0.734 ± 0.067.

For MNIQIGELAKRTACPVVTIRFYEQEGLLPPPGRSRGNFRLYGEEHVERLQFIRHCRSLDMNLSKVRTLLSYRKRPDQDCGEVNMLLDEHIRQVESRIGALLELVHHLVELREACSGARPAQSCGILQALSDCVCDTRGTTAHPSD, which sfGFP reporter fluorescence [1] is on record?
The sfGFP reporter fluorescence was 0.917 ± 0.079.

And the sfGFP reporter fluorescence ([2]; ligand: 1 µM Pb)?
The sfGFP reporter fluorescence was 1.61 ± 0.16.

And the sfGFP reporter fluorescence ([2]; ligand: 30 µM Zn)?
Its sfGFP reporter fluorescence is 3.1 ± 0.27.

For MNIQIGELAKRTACPVVTIRFYEQEGLLPPPGRSRGNFRLYGEEHVERLQFIRHCRSLDMNLSKVRTLLSYRKRPDQDCGEVNMLLDEHIRQVESRIGALLELRHHCVELREACSGARPAQSCGILQMLSDCVCDTRGTTAHPSD, which sfGFP reporter fluorescence [3] is on record?
Its sfGFP reporter fluorescence is 2.26 ± 0.13.

What about the sfGFP reporter fluorescence ([4]; ligand: 1 µM Pb) of the same variant?
The sfGFP reporter fluorescence was 2.97 ± 0.17.

And the sfGFP reporter fluorescence ([4]; ligand: 30 µM Zn)?
The sfGFP reporter fluorescence was 2.85 ± 0.064.
